Experimental data from the nanobody polyreactivity screen of Harvey et al. (2022).

Test: yeast display, Sf9 membrane polyspecificity reagent, FACS + sequencing; frameworks hold sequencing errors
Procedure, shortened: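 Galactose-induced (36–48 hours) yeast carrying a synthetic nanobody display library were exposed to 10% biotinylated, detergent-solubilized Sf9 membrane reagent at 4 °C for 1 hour. FACS followed streptavidin microbead enrichment, using low and high (top ~1%) gates for expression (anti-HA) and reagent binding (streptavidin). Colony PCR, MiSeq 2 × 250 sequencing and CDR-length filtering followed. Labels for polyreactivity reflect the gate of origin.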

| Sequence | polyreactivity (PSR sort gate) |
| --- | --- |
| QVQLVESGGGLVQAGGSLRLSCAASGSTFPSYAMGWYRQAHGKERELVAAINSGGGTNYADSVKGRFTISRDNAKNTVYLQMHSLKPEDTAVYYCDKSRYDYTKTEGGYWGQATQVTVSS | low polyreactivity |
| QVQLVESGGGLVQAGGSLRLSCAASGSTFPSYAMGWYRQAPGKERELVASITSSGGSTYYADSVKGRFTISRDNAKNTVYLQMNSLKPEDTAVYYCNARRYYYSWGREGGYWGQGTQVTVSS | low polyreactivity |
| QVQLVESGGGLVQAGGSLRLSCAASGSTFPTYAMGRDRTAPGKEREMVAAIDWSDGSITYYADSVKGRFTISRDNAKNTVYLQMNSLKPEDTAVYYCAKDNSQYGWGYDYWGQGTQVTVSS | low polyreactivity |
| QVQLVESGGGLVQAGGSLRLSCAASGSTFPTYSMGWYRQAPGKERELVAAITSGSGTNTYYADSVKGRFTISRDNAKNTVYLQMNSLKPEDTAVYYCAKSFRKKYGWGQGTQVTVSS | high polyreactivity |
| QVQLVESGGGLVQAGGSLRLSCAASGSTFPVNAMGWYRQAPGKERELVAAISSRGSSTYYADSVKGRFTISRDNAKNTVYLQMNSLKPEDTAVYYCAAPQRYPRFYYWGQGTQVTVSS | high polyreactivity |
| QVQLVESGGGLVQAGGSLRLSCAASGSTFPVNAMGWYRQAPGKERELVAAITYRDGDTYYADSVKGRFTISRDNAKNTVYLEMHSLKPEDTAVYYCNADVGRHGKNRHMDYWGQGTQVTVSS | low polyreactivity |
| QVQLVESGGGLVQAGGSLRLSCAASGSTFPVNAMGWYRQAPGKERELVARIRGSGGSTYYADSVKGRFTISRDNAKNTVYLQMKSLKPEDTAVYYCAARYIGYSSYKYDYWGQGTQVTVSS | high polyreactivity |
| QVQLVESGGGLVQAGGSLRLSCAASGSTFPVYAMGWYRQAPGKERELVAAISRSGASTYYAASVKGRFTISRDNAKNTVDLQMNSLKPDDTAVYYCARGYQGRLKYEYWGQGTQVTVSS | low polyreactivity |
| QVQLVESGGGLVQAGGSLRLSCAASGSTFPVYAMGWYRQAPGKERELVASISSGGSTYYADSVKGRFTISRDNAKNTVYLQMNSLKPEDTAVYYCAKDPWVESFVIYDYWGQGTQVTVSS | low polyreactivity |
| QVQLVESGGGLVQAGGSLRLSCAASGSTFPVYAMGWYRQAPGKERELVATISYSGGSTNYADSVKGRFTISRDNAKNTVYLQMNSLKPEDTAVYYCAKRYKRYVYWRSHGDYNYWGQGTQVTVSS | high polyreactivity |
| QVQLVESGGGLVQAGGSLRLSCAASGSTFPVYTLGWYRQAPGKERELVAAISWRGTSTYADSVKGRFTISRDNGKNNVYLQMNRLIPEDTAVYYCAAGDTRGMDYWGQGTQVTVSS | high polyreactivity |
| QVQLVESGGGLVQAGGSLRLSCAASGSTFPVYVMGWYRQAPGKERELVAAITRIGGSTYYADSVKGRFTISRDNAKNTVYLQMNSLKPEDTAVYYCAAGGTARDDSWGQGTQVTVSS | low polyreactivity |
| QVQLVESGGGLVQAGGSLRLSCAASGSTFPWNAMGWYRQAPGKERELDAAIRTGGGRTYYADSVKGRFTISRDNAKNTVYLQMNSLKPEDTAVYYCNAYQSSGRYRNSYGYWGQGTQVTVSS | high polyreactivity |
| QVQLVESGGGLVQAGGSLRLSCAASGSTFPWYAMVWYRQAPGKERELVAAIRWRGGSTYYADSVKGRFTISRDNAKNTVYLQMNSLKPEDTAVYYCAADPTYLRTLRFGSYDYWGQGTQVTVSS | high polyreactivity |
| QVQLVESGGGLVQAGGSLRLSCAASGSTFPYAMGWYTQAPGKEREFVAAITRSGGSTYYADSVKGRFTISRDNAKNTVYLQMNSLKPEDTAVYYATQRCVWGYHYWGQGTQVTVSS | high polyreactivity |
| QVQLVESGGGLVQAGGSLRLSCAASGSTFPYNAMGWYRQAPGKERELVAAITSDDTTNYADSVKGRFTISRDNAKNTVYLQMNSLKPEDTAVYYCAAEYRYPYLRGAGDYWGQGTQVTVSS | low polyreactivity |
| QVQLVESGGGLVQAGGSLRLSCAASGSTFPYNAMGWYRQAPGKERELVAAITSSGRTNYADSVKGRFTISRDNAKNTDYLQMNSLKPEDTAVYYCAAVRWYAHRVDYWGQGTQVTVSS | low polyreactivity |
| QVQLVESGGGLVQAGGSLRLSCAASGSTFPYNTMGWYRQAPGKEREFVAAITGDGGTTYYADSVKGRFTISRDNAKNTVYLQMNSLKPEDTAVYYCAVPYPAEGYGGDYWGQGSQVTVSS | low polyreactivity |
| QVQLVESGGGLVQAGGSLRLSCAASGSTFPYNVMGWYRPAPGKERELVAAISYSGGNTYYADSVKGRFTISRDNAKNTVYLQMNSLKPEDTAVYYCAKARRGGRGSIKYDYWGQGTQVTVSS | high polyreactivity |
| QVQLVESGGGLVQAGGSLRLSCAASGSTFPYPYTMGWYRQAPGKERELVAVISRTGGSTFYADSVKGRFTISRDNAKNTVYLQMNSLKPEDTAVYYCAARYAVGAHYDYWGQGTQVTVSS | high polyreactivity |
| QVQLVESGGGLVQAGGSLRLSCAASGSTFPYYAMGWYRQAPGKEMELVASIRKRGGGTYYADSVKGRFTISRDNAKNTVYLQMNSLKPEDTAVYYCAVRVYQFRYTGYDYWGQGTQVTVSS | high polyreactivity |
| QVQLVESGGGLVQAGGSLRLSCAASGSTFPYYAMGWYRQAPGKEREFVAAISYRGGSTYYADSVKGRFTISRDNAKNTVYLQMNSLKPEDTAVYYCAARSWQDRYANGYNYWGQGTQVTVSS | high polyreactivity |

| Sequence | polyreactivity (PSR sort gate) |
| --- | --- |
| QVQLVESGGGLVQAGGSLRLSCAASGSTFPYYAMGWYRQAPGKERELVAAITSGGSTNYADSVKGRFTISRDNAKNTVYLQMNSLKPEDTAVYYCNADTTYLSDYVTFDYWGQGTQVTVSS | low polyreactivity |
| QVQLVESGGGLVQAGGSLRLSCAASGSTFPYYARGWYRQAPGKERELVAAITSGGSTNYADSVKGRFTISRDNAKNTVYLQMNSLKPEDTAVYYCAARLRYTTVIYYYWGQGTQVTVSS | high polyreactivity |
| QVQLVESGGGLVQAGGSLRLSCAASGSTFPYYTMGGYRQAPGKERELVAAISWRGGSTYYADTVKGRFSISRDNAKNTVYLQMNSLKPEDTAVYYCAARYGVFGYDYWGQGTQVTVSS | high polyreactivity |
| QVQLVESGGGLVQAGGSLRLSCAASGSTFQANDMGWYRQAPGKERELVAAISTGGSSTYYADSVKGRFTISRDNAKNTVYLQMNCLKPEDTAVYYCAVDGLGGREGYWGQGTQVTVSS | high polyreactivity |
| QVQLVESGGGLVQAGGSLRLSCAASGSTFQENAMGWYRQAPGKEREFVAAISGSGGSTYYADSVKGRFTISRDNAKNTVYLQMNSLKPEDTAVYYCAARHYFRSRRRYDYWGQGTQVTVSS | low polyreactivity |
| QVQLVESGGGLVQAGGSLRLSCAASGSTFQGNAMGWYRQAPGKERELVAAISKRGGSTYYADSVKGRFTISRDNAKNTVYLQMNSLKPEDTAVYFCNAKLFASRGYYFGGAYQYGYWGQGTQVTVSS | high polyreactivity |
| QVQLVESGGGLVQAGGSLRLSCAASGSTFQGYAMGWYRQAPGKERELVAAISRSGSGTYYADSVKGRFTISRDNAKNTVYLQMNSLKPEDTAVYYCAKDDVRRSTSRHYYYWGHGTQVTVSS | high polyreactivity |
| QVQLVESGGGLVQAGGSLRLSCAASGSTFQGYDMGWYRQAPGKERELVAAINYSGGSTYYADSVKGRFTISRDNAKNTVYLQLNSLKPEDTAVFYCNADGYSQFWYEYYYCGQGTQVTVSS | high polyreactivity |
| QVQLVESGGGLVQAGGSLRLSCAASGSTFQIYAMGWYRQAPGKEWELVAAITSSSSTNYADSVKGRFTISRDNAKNTVYLQMNSLKPEDTAVYYCAADVSWRSNWYDYWGQGTQVTVSS | low polyreactivity |
| QVQLVESGGGLVQAGGSLRLSCAASGSTFQIYAMGWYRQAPGNERELVAAITSSSSTNYADSVKGRFTISRDNAKNTVYLQMNSLKPEDTAVYYCAADVSWRSNWYDYWGQGTQVTVSS | low polyreactivity |
| QVQLVESGGGLVQAGGSLRLSCAASGSTFQLYAMGWYRQAPGKERELVAAISGIGDSTYYADSVKGRFTISRDNAKYTVYLQMNSLKPEDTAVYYCAREFCDGLSGKFDYWGQGTQVNVSS | low polyreactivity |
| QVQLVESGGGLVQAGGSLRLSCAASGSTFQNYAMGWYIQAPGKERELVAAIRGNGGITYYADSVKGRFTISRDNAKNTVYLQMNSLKPEDTAVYYFAVRSAWVYGIRRDYWGQGTQVTVSS | high polyreactivity |
| QVQLVESGGGLVQAGGSLRLSCAASGSTFQNYAMGWYRQAPGKERELVAAINWSGGSTYYADSVKVRFTISRDNAKNTVYLQMNSLKPEDTAVYYCATDDPLAYGSFGPYQPYDYWGQGTQVTVSS | low polyreactivity |
| QVQLVESGGGLVQAGGSLRLSCAASGSTFQPYAMGWYREAPGKERELVATITWRGGRTYYADSVKGRFTISRDNAKYTVYLQMNSLKPEDTAVYYCNVAYRGFRYYYWGQGTQVNVSS | high polyreactivity |
| QVQLVESGGGLVQAGGSLRLSCAASGSTFQPYAMGWYRQAPGKEREFVATISGSAGSTYYADSVKGRFKISRDNAKNTVYLQMNSLKPEDTAVYYCNARPARKSLDYDYWGQGTQVTVSS | low polyreactivity |
| QVQLVESGGGLVQAGGSLRLSCAASGSTFQRYAMGWYRQAPGKERELVAAITIRGTRTYYADSVKGRFTISRDNAKNTVYLQMNSLKPEDTAVYYCAATYYWYGHPSRRYDYWGQGTQVTVSS | high polyreactivity |
| QVQLVESGGGLVQAGGSLRLSCAASGSTFQRYTMGWYSQAPGKERELVAAISQSGGRTYYADSVKGRFTISREHAKKTVYLEMNSLKPEDTAVYSCNAASRTKFDYWGQGTQVTVSS | high polyreactivity |
| QVQLVESGGGLVQAGGSLRLSCAASGSTFQSYAMGWYRQAPGKERELVASITRTGGTTYYADSVKGRFTISRDNAKNTVYLQMNSLKPEDTAVYYCNADLGQPISLDDFDYWGQGTQVTVSS | low polyreactivity |
| QVQLVESGGGLVQAGGSLRLSCAASGSTFQTYAMGWSRQAPGKERELVAAISFNGGSTYYADSVKGRFTISRDNAKNTVYLQMNSLKPEDTAVYYCAVEYTWATALYDGRHDYWGQGTQVTVSS | high polyreactivity |
| QVQLVESGGGLVQAGGSLRLSCAASGSTFQTYAMGWYRQAPGKERELVAAITSGGSTNYADSVKGRFTISRDNAKNTVYLQMNSLKPEETAVYYCAVRQIYQTSDHRLQYDYWGQGTQVSVSS | low polyreactivity |
| QVQLVESGGGLVQAGGSLRLSCAASGSTFQTYAMGWYRQAPGKERELVASIDYSGGSTYYADSVKGRFTISRDNAKNTVYLQMNSLKPEDTAVYYCAADLSSDSSYSGYDYWGQGTQVTVSS | low polyreactivity |
